Laboratory results taken from the supplement of paper PMC11246515.
± gives the standard deviation of the averaged measurements.

Assay: total protein half-life in vivo (active degradation + dilution); higher = more stable protein
[1] = wild type E. coli NCM3722, growth: C-lim chemostat, doubling time 6 h
[2] = wild type E. coli NCM3722, growth: C-lim chemostat, doubling time 12 h
[3] = wild type E. coli NCM3722, growth: P-lim chemostat, doubling time 6 h
[4] = wild type E. coli NCM3722, growth: P-lim chemostat, doubling time 12 h
[5] = E. coli NCM3722 delta-clpP delta-lon delta-hslV, growth: N-lim chemostat, doubling time 6 h
[6] = E. coli NCM3722 delta-clpP, growth: N-lim chemostat, doubling time 6 h
[7] = E. coli NCM3722 delta-hslV, growth: N-lim chemostat, doubling time 6 h
[8] = E. coli NCM3722 delta-lon, growth: N-lim chemostat, doubling time 6 h
[9] = E. coli NCM3722 delta-smpB, growth: N-lim chemostat, doubling time 6 h
[10] = wild type E. coli NCM3722, growth: C-lim chemostat, doubling time 3 h
[11] = wild type E. coli NCM3722, growth: N-lim chemostat, doubling time 6 h
[12] = wild type E. coli NCM3722, growth: N-lim chemostat, doubling time 12 h

MAINFSPKVGEILECNFGNYPVSQNGPFSTTYYDGRIPPEMIKNRLVVVLNGKINGNACIVVPLSTTRDQDKLKRGMHVEIASNVINDLQFFDQQIRWAKADLVQQVSRNRLNRARTYRGYLNQCLPHELVADIQRAVIKSINAISLIN
total protein half-life in vivo [1]: 6.12 h | total protein half-life in vivo [2]: 8.7 ± 2 h | total protein half-life in vivo [3]: 4.05 h | total protein half-life in vivo [4]: 8.56 ± 0.1 h

MAISIKTPEDIEKMRVAGRLAAEVLEMIEPYVKPGVSTGELDRICNDYIVNEQHAVSACLGYHGYPKSVCISINEVVCHGIPDDAKLLKDGDIVNIDVTVIKDGFHGDTSKMFIVGKPTIMGERLCRITQESLYLALRMVKPGINLREIGAAIQKFVEAEGFSVVREYCGHGIGRGFHEEPQVLHYDSRETNVVLKPGMTFTIEPMVNAGKKEIRTMKDGWTVKTKDRSLSAQYEHTIVVTDNGCEILTLRKDDTIPAIISHDE [P0AE18]
total protein half-life in vivo [5]: 5.22 ± 1 h | total protein half-life in vivo [6]: 4.545 ± 0.041 h | total protein half-life in vivo [7]: 4.71 ± 0.14 h | total protein half-life in vivo [8]: 5.3 ± 0.74 h | total protein half-life in vivo [9]: 4.36 ± 0.17 h | total protein half-life in vivo [10]: 3.53 ± 0.17 h | total protein half-life in vivo [1]: 5.52 ± 0.18 h | total protein half-life in vivo [2]: 10.4 ± 0.64 h | total protein half-life in vivo [11]: 4.42 ± 0.58 h | total protein half-life in vivo [12]: 6.93 ± 0.49 h | total protein half-life in vivo [3]: 6.04 ± 0.15 h | total protein half-life in vivo [4]: 12.19 ± 0.095 h

MAKAPKRAFVCNECGADYPRWQGQCSACHAWNTITEVRLAASPMVARNERLSGYAGSAGVAKVQKLSDISLEELPRFSTGFKEFDRVLGGGVVPGSAILIGGNPGAGKSTLLLQTLCKLAQQMKTLYVTGEESLQQVAMRAHRLGLPTDNLNMLSETSIEQICLIAEEEQPKLMVIDSIQVMHMADVQSSPGSVAQVRETAAYLTRFAKTRGVAIVMVGHVTKDGSLAGPKVLEHCIDCSVLLDGDADSRFRTLRSHKNRFGAVNELGVFAMTEQGLREVSNPSAIFLSRGDEVTSGSSVMVVWEGTRPLLVEIQALVDHSMMANPRRVAVGLEQNRLAILLAVLHRHGGLQMADQDVFVNVVGGVKVTETSADLALLLAMVSSLRDRPLPQDLVVFGEVGLAGEIRPVPSGQERISEAAKHGFRRAIVPAANVPKKAPEGMQIFGVKKLSDALSVFDDL
total protein half-life in vivo [5]: 4.95 ± 0.18 h | total protein half-life in vivo [6]: 4.7 ± 0.74 h | total protein half-life in vivo [7]: 4.63 ± 1.1 h | total protein half-life in vivo [9]: 3.88 ± 0.27 h | total protein half-life in vivo [10]: 2.88 ± 0.043 h | total protein half-life in vivo [1]: 4.894 ± 0.039 h | total protein half-life in vivo [2]: 8.52 ± 1.8 h | total protein half-life in vivo [11]: 3.65 ± 0.14 h | total protein half-life in vivo [12]: 5.76 ± 0.49 h | total protein half-life in vivo [3]: 5.64 ± 0.66 h | total protein half-life in vivo [4]: 10.2 ± 0.85 h

MAKEISSELLNTILTRVGGPGNIASCGNCMTRLRLGVHDSSLVDPNIKTLEGVKGVILTSDQVQVVFGPGKAHRAAKAMSELLGEAPVQDAAEIAAQNKRQLKAKQTSGVQQFLAKFATIFTPLIPGFIAAGLLLGIATLIATVMHVPADAQGTLPDALNFMKVFSKGLFTFLVILVGYNAAQAFGGTGVNGAIIAALFLLGYNPAATTGYYAGFHDFFGLPIDPRGNIIGVLIAAWACARIEGMVRRFMPDDLDMLLTSLITLLITATLAYLIIMPLGGWLFEGMSWLFMHLNSNPFGCAVLAGLFLIAVVFGVHQGFIPVYLALMDSQGFNSLFPILSMAGAGQVGAALALYWRAQPHSALRSQVRGAIIPGLLGVGEPLIYGVTLPRMKPFVTACLGGAAGGLFIGLIAWWGLPMGLNSAFGPSGLVALPLMTSAQGILPAMAVYAGGILVAWVCGFIFTTLFGCRNVNLD
total protein half-life in vivo [5]: 3.66 h | total protein half-life in vivo [6]: 3.67 h | total protein half-life in vivo [9]: 6.02 h | total protein half-life in vivo [10]: 3.48 h | total protein half-life in vivo [1]: 5.06 h | total protein half-life in vivo [11]: 5.006 ± 0.029 h

MAKLTLQEQLLKAGLVTSKKAAKVERTAKKSRVQAREARAAVEENKKAQLERDKQLSEQQKQAALAKEYKAQVKQLIEMNRITIANGDIGFNFTDGNLIKKIFVDKLTQAQLINGRLAIARLLVDNNSEGEYAIIPASVADKIAQRDASSIVLHSALSAEEQDEDDPYADFKVPDDLMW
total protein half-life in vivo [5]: 5.344 ± 0.0096 h | total protein half-life in vivo [6]: 4.88 ± 0.16 h | total protein half-life in vivo [7]: 2.22 ± 0.1 h | total protein half-life in vivo [8]: 2.88 h | total protein half-life in vivo [9]: 2.37 h | total protein half-life in vivo [10]: 2.24 ± 0.012 h | total protein half-life in vivo [1]: 3.23 ± 0.14 h | total protein half-life in vivo [2]: 4.09 ± 0.13 h | total protein half-life in vivo [11]: 1.95 ± 0.37 h | total protein half-life in vivo [12]: 2.45 ± 0.67 h | total protein half-life in vivo [3]: 2.17 ± 0.44 h | total protein half-life in vivo [4]: 4.41 ± 0.084 h

MAKMRAVDAAMYVLEKEGITTAFGVPGAAINPFYSAMRKHGGIRHILARHVEGASHMAEGYTRATAGNIGVCLGTSGPAGTDMITALYSASADSIPILCITGQAPRARLHKEDFQAVDIEAIAKPVSKMAVTVREAALVPRVLQQAFHLMRSGRPGPVLVDLPFDVQVAEIEFDPDMYEPLPVYKPAASRMQIEKAVEMLIQAERPVIVAGGGVINADAAALLQQFAELTSVPVIPTLMGWGCIPDDHELMAGMVGLQTAHRYGNATLLASDMVFGIGNRFANRHTGSVEKYTEGRKIVHIDIEPTQIGRVLCPDLGIVSDAKAALTLLVEVAQEMQKAGRLPCRKEWVADCQQRKRTLLRKTHFDNVPVKPQRVYEEMNKAFGRDVCYVTTIGLSQIAAAQMLHVFKDRHWINCGQAGPLGWTIPAALGVCAADPKRNVVAISGDFDFQFLIEELAVGAQFNIPYIHVLVNNAYLGLIRQSQRAFDMDYCVQLAFENINSSEVNGYGVDHVKVAEGLGCKAIRVFKPEDIAPAFEQAKALMAQYRVPVVVEVILERVTNISMGSELDNVMEFEDIADNAADAPTETCFMHYE [P0AEP7]
total protein half-life in vivo [5]: 5.98 ± 0.97 h | total protein half-life in vivo [6]: 3.5 ± 0.04 h | total protein half-life in vivo [7]: 4.16 ± 0.24 h | total protein half-life in vivo [8]: 3.51 h | total protein half-life in vivo [9]: 3.85 ± 0.4 h | total protein half-life in vivo [10]: 2.87 ± 0.1 h | total protein half-life in vivo [2]: 7.8 ± 3.2 h | total protein half-life in vivo [11]: 3.45 h | total protein half-life in vivo [12]: 5.7 ± 0.37 h | total protein half-life in vivo [3]: 5.49 ± 0.69 h | total protein half-life in vivo [4]: 11.9 ± 2 h

MAKTAAALHILVKEEKLALDLLEQIKNGADFGKLAKKHSICPSGKRGGDLGEFRQGQMVPAFDKVVFSCPVLEPTGPLHTQFGYHIIKVLYRN [P0A9L5]
total protein half-life in vivo [5]: 6.6 ± 0.64 h | total protein half-life in vivo [6]: 4.65 ± 1.5 h | total protein half-life in vivo [7]: 4.743 ± 0.043 h | total protein half-life in vivo [8]: 6.25 ± 0.67 h | total protein half-life in vivo [9]: 6.01 ± 0.7 h | total protein half-life in vivo [10]: 3.05 ± 0.21 h | total protein half-life in vivo [1]: 5.57 ± 0.14 h | total protein half-life in vivo [2]: 9.11 ± 0.34 h | total protein half-life in vivo [11]: 4.22 ± 0.34 h | total protein half-life in vivo [12]: 7.37 ± 0.48 h | total protein half-life in vivo [3]: 4.54 ± 1.2 h | total protein half-life in vivo [4]: 10.6 ± 0.12 h
